Among the data in PMC11960969, “Mdga2 deficiency leads to an aberrant activation of BDNF/TrkB signaling that underlies autism-relevant synaptic and behavioral changes in mice” (PLOS Biology, 2025) are cell membrane localization values, retold here.

This experiment deals with cell membrane localization in HeLa cells and mouse primary neurons. Nature of the experiment: Immunostaining of membrane localization of MDGA2, ΔMAM or V930I in transfected cells. The experiment is classed as cell-based. To be noted: HeLa cells transfected 24 h, S3E Fig. The source says: Fig 7 The autism spectrum disorder (ASD)-associated MDGA2 V930I mutation impairs the MDGA2-TrkB interaction and MDGA2’s inhibitory effect on the tyrosine kinase B (TrkB) signaling. (A) Schematic depiction of the WT human MDGA2 and its V930I mutation constructs that are tagged with GFP. (B, C) HeLa cells (B) and mouse primary neurons (C) transfected with MDGA2 (green) or V930I (green) were immunostained with an antibody against the plasma membrane protein ATP1A1 (red) and then observed by confocal microscopy. Scale bars = 10 μm. (D) Cell surface expression of WT MDGA2 or V930I in transfected HeLa cells was determined by surface biotinylation assays. Biotinylated (cell surface) protein levels were quantified by densitometry and normalized to total protein levels for comparison (WT MDGA2 levels were set to one arbitrary unit). n = 4 experimental replicates. (E) Mouse primary neurons were transfected with MDGA2, V930I, or ΔMAM. […] Immunoprecipitated protein levels were quantified by densitometry, normalized to respective inputs, and compared to those transfected with MDGA2 (set to one arbitrary units). n = 4 experimental replicates. […] Levels of phosphorylated proteins were quantified by densitometry, normalized to respective total protein levels and compared to controls (set to one arbitrary units). n = 6 experimental replicates. […]

B1: MDGA2-ΔMAM: truncated form of MDGA2 lacking its MAM domain (protein)
chain: PPTVRIVHSGLACNIEEERYSERVYTIREGETLELTCLVTGHPRPQIRWTKTAGSASDRFQDSSVFNETLRITNIQRHQGGRYYCKAENGLGSPAIKSIRVDVYYLDDPVVTVHQSIGEAKEQFYYERTVFLRCVANSNPPVRYSWRRGQEVLLQGSDKGVEIYEPFFTQGETKILKLKNLRPQDYANYSCIASVRNVCNIPDKMVSFRLSNKTASPSIKLLVDDPIVVNPGEAITLVCVTTGGEPAPSLTWVRSFGTLPEKTVLNGGTLTIPAITSDDAGTYSCIANNNVGNPAKKSTNIIVRALKKGRFWITPDPYHKDDNIQIGREVKISCQVEAVPSEELTFSWFKNGRPLRSSERMVITQTDPDVSPGTTNLDIIDLKFTDFGTYTCVASLKGGGISDISIDVNISSSTVPPNLTVPQEKSPLVTREGDTIELQCQVTGKPKPIILWSRADKEVAMPDGSMQMESYDGTLRIVNVSREMSGMYRCQTSQYNGFNVKPREALVQLIVQYPPAVEPAFLEIRQGQDRSVTMSCRVLRAYPIRVLTYEWRLGNKLLRTGQFDSQEYTEYAVKSLSNENYGVYNCSIINEAGAGRCSFLVTGKAYAPEFYYDTYNPVWQNRHRVYSYSLQWTQMNPDAVDRIVAYRLGIRQAGQQRWWEQEIKINGNIQKGELITYNLTELIKPEAYEVRLTPLTKFGEGDSTIRVIKYSAPVNPHLREQDLATKNSVD
modifications: left off: GFP, end not stated, kept
notes: truncated form of MDGA2 lacking its MAM domain
Turning to B1, the cell membrane localization result is given as “no effect on its cell membrane localization”.
